Assay [1] concerns the target soluble hTLR5 ectodomain fused to the Fc region of human IgG1 (human) (UniProt O60602).
Assay [2] has as its target T1, soluble hTLR5 ectodomain fused to the Fc region of human IgG1 (human, UniProt O60602 21-639).
T1 construct: human Toll-like receptor 5, ectodomain; UniProtKB O60602; In the functional rows this molecule stands for human TLR5, which was there full length on HEK293 cells (pUNO-hTLR5) or endogenous in A549 cells; also called hTLR5-Fc; source: bought: Invivogen
As to the kind of experiment: co-IP; 10 ug hTLR5-Fc bound to protein A-coupled Dynabeads (control: beads with water only); 20 ug wt or mutant flagellin added, 1 h at room temperature; washed 3 times with 1 x PBS, 0.02% Tween 20, pH 7.5; eluted in 0.1% SDS at 95 C; flagellin detected by Western blot with anti-His antibodies. To be noted: both partners purified. (A western blot detects proteins with antibodies after separation by electrophoresis.)

T1 sequence (O60602 21-639): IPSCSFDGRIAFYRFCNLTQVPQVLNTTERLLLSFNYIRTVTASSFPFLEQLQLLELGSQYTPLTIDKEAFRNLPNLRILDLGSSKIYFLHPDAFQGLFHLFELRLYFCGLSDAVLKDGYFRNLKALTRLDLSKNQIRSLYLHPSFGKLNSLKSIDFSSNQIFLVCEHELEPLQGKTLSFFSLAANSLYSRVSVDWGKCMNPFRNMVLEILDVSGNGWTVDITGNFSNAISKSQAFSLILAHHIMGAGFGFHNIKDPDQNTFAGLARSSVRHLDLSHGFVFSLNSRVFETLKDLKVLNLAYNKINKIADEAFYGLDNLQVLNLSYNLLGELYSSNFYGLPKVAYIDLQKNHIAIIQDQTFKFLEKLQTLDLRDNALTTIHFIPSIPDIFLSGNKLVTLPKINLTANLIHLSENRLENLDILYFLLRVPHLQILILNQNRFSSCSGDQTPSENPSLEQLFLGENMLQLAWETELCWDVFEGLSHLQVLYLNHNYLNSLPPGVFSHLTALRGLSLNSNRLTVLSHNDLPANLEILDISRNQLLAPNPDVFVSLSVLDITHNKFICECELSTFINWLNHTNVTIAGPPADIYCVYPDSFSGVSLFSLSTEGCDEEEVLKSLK
soluble hTLR5 ectodomain fused to the Fc region of human IgG1 (human), sequence (O60602 21-639): as above

Take “dimSFΔD0, two SFΔD0 domains tethered into a single polypeptide chain by a 27 amino acid peptide linker”: the TLR5 activation: NF-kB reporter in A549 cells (SEAP) and in hTLR5-transfected HEK293 cells (luciferase, 0-1000 ng/ml); lowest active concentration in assay [1] was found to be 50 ng/mL.

B1: S. typhimurium flagellin FliC, wild type (natural protein, UniProt P06179 1-495, looked up)
chain: MAQVINTNSLSLLTQNNLNKSQSALGTAIERLSSGLRINSAKDDAAGQAIANRFTANIKGLTQASRNANDGISIAQTTEGALNEINNNLQRVRELAVQSANSTNSQSDLDSIQAEITQRLNEIDRVSGQTQFNGVKVLAQDNTLTIQVGANDGETIDIDLKQINSQTLGLDTLNVQQKYKVSDTAATVTGYADTTIALDNSTFKASATGLGGTDQKIDGDLKFDDTTGKYYAKVTVTGGTGKDGYYEVSVDKTNGEVTLAGGATSPLTGGLPATATEDVKNVQVANADLTEAKAALTAAGVTGTASVVKMSYTDNNGKTIDGGLAVKVGDDYYSATQNKDGSISINTTKYTADDGTSKTALNKLGGADGKTEVVSIGGKTYAASKAEGHNFKAQPDLAEAAATTTENPLQKIDAALAQVDTLRSDLGAVQNRFNSAITNLGNTVNNLTSARSRIEDSDYATEVSNMSRAQILQQAGTSVLAQANQVPQNVLSLLR
notes: flagellin FliC of S. typhimurium (SaTy), UniProt P06179; cloned into pET19b; also called SaTy; wild-type flagellin; source: E. coli BL21 (DE3) pLysS, purified (Ni-NTA); not shown: His10, N-terminal, kept
Consider B1, for which the binding result in assay [2] is given as “binds”.

For the origin of these results see publication PMC5578693, “The role of the C-terminal D0 domain of flagellin in activation of Toll like receptor 5” (PLoS Pathogens, 2017).
